How the values were obtained:
[1] = target: Crotalus durissus terrificus (C.d.t.) venom; experiment: ELISA on C.d.t. venom; dilution 1:62,500
[2] = target: Crotalus durissus terrificus (C.d.t.) venom; experiment: ELISA on C.d.t. venom; dilution 1:312,500

## preimmune IgY (antibody)
[1]
  ELISA absorbance: 0.001 absorbance
[2]
  ELISA absorbance: 0.01 absorbance

Reference: patent publication US20040142455A1
